For test [1], the target named is T1, human PDGFRβ (human, UniProt P09619 33-530, limits assumed).
T1 construct: also called hPDGFRβ; recombinant human PDGFRβ
Kind of test: solution equilibrium binding: 35S-Met labelled in vitro translated protein, human PDGFRβ titrated, capture on protein A beads, scintillation counts. The protocol: (§1) The affinity of several scFvs was determined by solution based equilibrium binding assay. Specifically, 120 pmol of scFv RNA was translated into free protein with ³⁵S Met incorporated. The translated reaction mixture was 3-fold diluted in binding buffer containing 1×PBS with 0.025% triton, 1 mg/mL BSA and 0.1 mg/mL sssDNA. Human PDGFRβ was diluted in the same binding buffer to final concentrations from 100 nM to 0 nM. The diluted scFv mixture was incubated with hPDGFRβ in final volume of 100 ul on Kingfisher plates (Thermofisher Scientific, 97002084). Following incubation, 25 ul of protein A magnetic beads (Invitrogen) were used to capture the PDGFRβ from solution. The captured PDGFRβ was washed and eluted in kingfisher Reader (Thermofisher Scientific). The amount of scFv (labeled with ³⁵S Met) bound to the magnetic bead-immobilized hPDGFRβ was counted using a scintillation counter and the Kd was calculated with Graph Pad Prism 5.

Another test addresses T2, mouse PDGFRβ (mouse, UniProt P05622 32-530, limits assumed).
T2 sequence (looked up): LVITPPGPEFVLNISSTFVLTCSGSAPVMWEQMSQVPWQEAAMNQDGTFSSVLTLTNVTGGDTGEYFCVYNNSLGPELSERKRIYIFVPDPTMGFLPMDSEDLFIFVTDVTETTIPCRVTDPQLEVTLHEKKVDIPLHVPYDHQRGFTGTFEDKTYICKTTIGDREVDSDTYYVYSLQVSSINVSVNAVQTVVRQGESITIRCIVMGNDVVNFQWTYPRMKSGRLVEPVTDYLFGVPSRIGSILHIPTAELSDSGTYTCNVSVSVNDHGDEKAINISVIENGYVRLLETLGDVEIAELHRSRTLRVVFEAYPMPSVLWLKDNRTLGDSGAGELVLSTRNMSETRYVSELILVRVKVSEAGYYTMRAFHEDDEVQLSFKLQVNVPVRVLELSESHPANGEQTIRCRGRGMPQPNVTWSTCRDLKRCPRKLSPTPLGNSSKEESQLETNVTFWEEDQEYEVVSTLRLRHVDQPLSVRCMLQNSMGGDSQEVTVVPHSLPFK
Kind of test: 35S-Met labelled in vitro translated VH, binding to target.

The target in test [2] is T3, human PDGFR-hIgG1-Fc chimeric fusion protein (human, UniProt P09619 33-530).
T3 construct: For the IgG assay it was captured by an anti-6His antibody, which points to a His tag; also called recombinant human PDGFR-hIgG1-Fc chimeric fusion protein (R&D, #385-PR-100/CF); human PDGFRβ; not shown: human IgG1 Fc
Kind of test: SPR (Biacore T100), PDGFR-hIgG1-Fc captured by anti-hIgG1 Fc, VH injected; series 0 to 120 in the legend box, unit inferred. A general note: In SPR one partner is held on a chip, and binding of the other changes the refractive index at the surface.

Test [3] addresses T3, human PDGFR-hIgG1-Fc chimeric fusion …. Kind of test: SPR (Biacore T100), PDGFR-Fc captured by anti-6His antibody, 1:1 model. The protocol: (§2) IgG1 to human PDFGR were determined using surface plasmon resonance on a Biacore T100. Briefly, recombinant human PDGFR-hIgG1-Fc chimeric fusion protein (R&D, #385-PR-100/CF) was immobilized on a Series CM5 sensorchip coupled with anti-hIgG1 Fc monoclonal antibody (for the VH and ScFv assays) or anti-6His antibody (for the IgG assay). […] The data was analyzed using the Biacore T100 analysis software using a 1:1 model. Mass transport was checked and avoided to allow accurate measurements. All data was double referenced according to Biacore standard protocol.

In test [4] the target is T4, mouse PDGFR-hIgG1-Fc chimeric fusion protein (mouse; human, UniProt P05622 32-530, limits assumed).
T4 construct: also called mouse PDGFRβ; mouse PDFGR; not shown: human IgG1 Fc
T4 sequence (looked up): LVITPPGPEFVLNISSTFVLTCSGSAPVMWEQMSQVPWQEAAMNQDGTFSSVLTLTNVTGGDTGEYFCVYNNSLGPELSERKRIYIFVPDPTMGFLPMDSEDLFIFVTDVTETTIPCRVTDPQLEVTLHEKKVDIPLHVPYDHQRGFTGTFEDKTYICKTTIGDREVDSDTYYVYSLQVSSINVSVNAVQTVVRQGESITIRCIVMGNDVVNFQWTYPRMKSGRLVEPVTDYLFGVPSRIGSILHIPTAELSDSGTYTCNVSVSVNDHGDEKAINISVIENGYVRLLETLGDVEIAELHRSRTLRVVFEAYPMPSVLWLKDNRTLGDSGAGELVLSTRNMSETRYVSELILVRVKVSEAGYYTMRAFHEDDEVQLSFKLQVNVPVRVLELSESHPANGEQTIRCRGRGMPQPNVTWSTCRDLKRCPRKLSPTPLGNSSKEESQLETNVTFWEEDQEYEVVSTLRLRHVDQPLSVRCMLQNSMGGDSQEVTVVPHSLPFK
Kind of test: SPR (Biacore T100), mouse PDGFR-hIgG1-Fc captured by anti-hIgG1 Fc, 1:1 fit. As for the experimental part:
(§3) The R4 framework shuffled human and mouse PDGFRβ enriched VH domain pool selected in Example 2 was cloned into E. coli expression vectors, produced and purified. The binding kinetics of the VH domains to human and mouse PDFGR was determined using surface plasmon resonance on a Biacore T100. Briefly, human and mouse PDGFR-hIgG1-Fc chimeric fusion protein were separately immobilized using a Series CM5 sensorchip (CM5) coupled to anti-hIgG1 Fc monoclonal antibody. For each cycle, the PDGFR fusion protein was first captured, followed by the injection of VH for 115 seconds at a flow rate of 100 uL/min (association). Immediately following the association phase is a dissociation phase of 600 seconds. The surface was regenerated at each cycle with a single injection of 3M MgCl2 (10 uL/min, 60 seconds). Multiple concentrations of VH domain were injected (0.55 nM-40 nM) and the resulting sensorgram were analyzed with T100 Evaluation software. The binding kinetics was determined using 1:1 binding curve fitting.

Test [5] has as its target T3, human PDGFR-hIgG1-Fc chimeric fusion …. Kind of test: SPR (Biacore T100), human PDGFR-hIgG1-Fc captured by anti-hIgG1 Fc, 1:1 fit; the text prints it rounded as 93 pM. As for the experimental part:
as §3

Test [6] shares this target. As to the kind of experiment: SPR (Biacore T100), human PDGFR-hIgG1-Fc captured by anti-hIgG1 Fc, 1:1 fit. As for the experimental part:
as §3

For test [7] the target is unchanged. As to the kind of experiment: SPR (Biacore T100), PDGFR-Fc captured by anti-hIgG1 Fc, VH injected, 1:1 fit. As for the experimental part: as §3
The target of test [8] is T1, human PDGFRβ. Kind of test: solution equilibrium binding: 35S-Met labelled in vitro translated protein, human PDGFRβ titrated (0 to 20 nM), capture on protein A beads, scintillation counts. As for the experimental part:
as §1, with “Human PDGFRβ was diluted in the same binding buffer to final concentrations from 100 nM to 0 nM.” left out

For test [9], the target named is T3, human PDGFR-hIgG1-Fc chimeric fusion …. As to the kind of experiment: SPR competition (Biacore T100): captured PDGFR-Fc, VH 0.46-60 nM, then 10 nM PDGFBB. The protocol: Briefly, human PDGFR-hIgG1-Fc chimeric fusion protein was immobilized using a Series CM5 sensorchip coupled with anti-hIgG1 Fc monoclonal antibody. […] For each successive cycle, the PDGFR fusion protein was first captured then VH domain was then injected for 120 seconds. […] The surface was regenerated at each cycle with a single injection of 3M MgCl2 (10 uL/min, 60 seconds).

Test [10] has the same target. As to the kind of experiment: SPR (Biacore T100), PDGFR-Fc captured by anti-hIgG1 Fc, 1:1 model. The protocol: as §2
Test [11] has as its target T1, human PDGFRβ. Kind of test: ELISA: plate coated with 2 ug/mL human PDGFRβ or human IgG, crude scFv lysate, anti-flag-HRP, OD450. As for the experimental part: A PDGFRβ binding ELISA assay was performed to assess the binding of the scFv to immobilized PDGFRβ and to determine the EC50. Specifically, 2 ug/mL of human PDGFRβ and human Fc or IgG in PBS was immobilized on Maxisorp plates at 4° C. overnight. The plate was then washed and blocked with superblock. In vitro translated crude scFv lysate was diluted 1:3 in 1×PBST. 100 ul of the diluted scFv lysate was loaded into each well of Maxisorp plates and incubated for 1 hour at room temperature. scFv that bound to immobilized PDGFRβ was detected by anti-flag antibody-HRP at 1:5000 dilution and a TMB substrate. The plate was read on a Molecular Device plate reader with end point assay at OD 450 nm.

From US20130177572A1 (X BODY, published 2013) come the findings set out here.

T1 sequence (P09619 33-530 limits assumed): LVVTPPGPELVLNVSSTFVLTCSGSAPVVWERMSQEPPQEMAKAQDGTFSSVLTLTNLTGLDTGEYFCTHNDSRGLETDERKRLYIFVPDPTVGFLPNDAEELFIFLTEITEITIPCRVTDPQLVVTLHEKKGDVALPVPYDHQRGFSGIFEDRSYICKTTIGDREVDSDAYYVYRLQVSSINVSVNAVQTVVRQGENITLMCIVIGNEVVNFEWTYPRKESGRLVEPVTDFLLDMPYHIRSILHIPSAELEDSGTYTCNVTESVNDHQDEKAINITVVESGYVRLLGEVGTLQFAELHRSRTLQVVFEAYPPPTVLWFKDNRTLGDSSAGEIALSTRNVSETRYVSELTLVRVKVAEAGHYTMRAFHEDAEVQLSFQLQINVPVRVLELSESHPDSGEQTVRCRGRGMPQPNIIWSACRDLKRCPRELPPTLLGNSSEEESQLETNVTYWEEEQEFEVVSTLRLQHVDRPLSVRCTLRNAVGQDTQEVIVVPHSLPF
T3 sequence (P09619 33-530 limits assumed, change not shown): as the sequence (P09619 33-530 limits assumed) above

B1: XB1511 VH domain (other)
VH: QVQLVQSGAEVKKPGSSVKVSCKASGGTFSSYAISWVRQAPGQGLEWMGGIIPIFGTANYAQKFQGRVTITADESTSTAYMELSSLRSEDTAVYYCAIHGGDRSYWGQGTLVTVSS
notes: Isolated (unpaired) human VH domain; also called clone A4; A4 XB1511
In the case of B1, the values for the dissociation constant (Kd) (with human PDGFRβ [1]; in test [2]) were 31.9 nM and 14.7 nM, respectively. Besides, the binding result with mouse PDGFRβ is reported as “no binding (tested: 100 nM)”.

B2: XB2202/A4 IgG1 (antibody)
heavy: not shown
light: DVVMTQSPSSLSASVGDRVTITCQASQDISNWLNWYQQKPGKAPKLLIYEASNLETGVPSRFSGSGSGTDFTFTISSLQPEDIATYYCQQYNNVLRTFGQGTKVEIKRTVAAPSVFIFPPSDEQLKSGTKVEIKRTVAAPSVFIFPPSDEQLKSGTASVVCLLNNFYPREAKVQWKVDNALQSGNSQESVTEQDSKDSTYSLSSTLTLSKADYEKHKVYACEVTHQGLSSPVTKSFNRGEC
notes: Full-length heterotetrameric IgG1 expressed in 293T cells; also called XB2202/A4 IgG1 antibody
With B2, in test [3], the Kd stood at 1.59 nM, the koff turned out to be 0.00156 s⁻¹ and the kon stood at 980000 M⁻¹ s⁻¹.

B3: XB2708 VH domain (other)
VH: QVQLVQSGGGVVQPGGSLRLSCAASGFTSRSYGMHWVRQAPGKGLEWVAFILFDGNNKYYADSVKGRFTISSDNSKNTLYLQMNSLRAEDTAVYYCATHGGDRSYWGQGTLVTVSS
notes: Isolated (unpaired) human VH domain, framework-shuffled derivative of XB1511; produced in E. coli for SPR
As to B3, the Kd in [4] worked out at 1.08 nM; in test [5], 0.0933 nM; in [7], 0.093 nM. For the same molecule, the koff in [4] was 0.00692 s⁻¹; in [7] it was 0.000927 s⁻¹. Besides, the figures for the on-rate constant (kon) in test [4] and in test [6] were 6.41e+06 M⁻¹ s⁻¹ and 9.94e+06 M⁻¹ s⁻¹, respectively.

B4: XB2202 VH domain (other)
VH: QVQLVQSGAEVKKPGSSVRVSCKASGGTFSRHAISWVRQAPGQGLEWIGGILPILKTPNYAQRFQGRVTINADESTSTVYMEMSSLRSEDTAVYYCATHGGDRSYWGQGTLVTVSS
notes: as for B3
On to B4, for which the Kd in [4] was found to be 0.925 nM; with human PDGFRβ [8] it was 0.234 nM; in test [6] it was 0.243 nM; in [10], 0.227 nM; in test [7], 0.249 nM. Besides, the koff in test [4] was found to be 0.00289 s⁻¹; in test [6], 0.00175 s⁻¹; in [10], 0.00295 s⁻¹; in test [7] it was 0.00186 s⁻¹. Also, the association rate constant (kon) was found to be 3.13e+06 M⁻¹ s⁻¹ in test [4], 7.19e+06 M⁻¹ s⁻¹ in [6] and 1.3e+07 M⁻¹ s⁻¹ in test [10]. The molecule further gave a 50% inhibitory concentration (IC50) in [9] of under 5 nM.

B5: A5 (scFv, V domains shown)
VH: QVQLVQSGAEVKKPGSSVRVSCKASGGTFSRHAISWVRQAPGQGLEWIGGILPILKTPNYAQRFQGRVTINADESTSTVYMEMSSLRSEDTAVYYCATHGGDRSYWGQGTLVTVSS
VL: SYELTQPPSASASLGASVTLTCTVSSGYRSYEVDWFQQRPGKGPRFVMRVGTGGIVGSRGDGIPDRFSVWGSGLNRYLTIEDIQEEDESDYYCGADHGSGSNLVYVFGTGTKVTVL
notes: also called XB2202/A5 scFv
In the case of B5, the binding result with human PDGFRβ [11] was “no binding”.

B6: C2 (scFv, V domains shown)
VH: QVQLVQSGAEVKKPGSSVRVSCKASGGTFSRHAISWVRQAPGQGLEWIGGILPILKTPNYAQRFQGRVTINADESTSTVYMEMSSLRSEDTAVYYCATHGGDRSYWGQGTLVTVSS
VL: DIQMTQSPSSLSASVGDRVAIACRPSQDIGTDLGWYQQKPGKAPKLLIFDSSTLQSGVPSRFSGSLSGTDFILTITNLQPEDFATYYCLQDYSFPYTFGQGTKLQIKR
notes: also called scFv XB2202-C2; XB2202/C2 scFv
Take B6: in the test with human PDGFRβ [8], the affinity, expressed as Kd, was 0.018 nM.

One may read the Kd as the concentration at which binding is half-saturated. The low end stands for tighter binding, the high end for weaker binding. As usually defined, the koff is a measure of how fast the partners let go of each other. Low values mean a long-lived complex, high ones a short-lived complex. For orientation: kon means a measure of how fast the partners come together. High values mean fast association, low ones slow association. A word on the IC50: it is the concentration that gives 50% inhibition. Read a high IC50 as weaker potency in that assay.
